Laboratory results taken from publication PMC3258132 (Nucleic Acids Research, 2011).
Read-outs that look alike come from different tables or passages of the source.

Legend:
AUC [1] = target: the molecule itself; assay: AUC
L1 ORF1p [2] = target: T1, L1 ORF1p (Homo sapiens (L1.3, Ta-1 subfamily of …, UniProt Q9UN81)); assay: EMSA
L1 ORF1p [3] = target: T1, L1 ORF1p; assay: filter binding
L1 ORF1p [4] = target: T1, L1 ORF1p; assay: filter binding; remark: listed apart in the source
L1 ORF1p [5] = target: T1, L1 ORF1p; assay: EMSA; remark: listed apart in the source
L1 ORF1p [6] = target: T1, L1 ORF1p; assay: EMSA; remark: listed apart in the source
L1 ORF1p [7] = target: T1, L1 ORF1p; assay: filter binding; remark: listed apart in the source
AUC [8] = target: the molecule itself; assay: AUC; remark: listed apart in the source
AUC [9] = target: the molecule itself; assay: AUC; remark: listed apart in the source
L1 ORF1p [10] = target: T1, L1 ORF1p; assay: filter binding; remark: listed apart in the source

B1: human L1 ORF1 protein (ORF1p), full length, expressed in insect cells (natural protein)
chain: GMGKKQNRKTGNSKTQSASPPPKERSSSPATEQSWMENDFDELREEGFRRSNYSELREDIQTKGKEVENFEKNLEECITRITNTEKCLKELMELKTKARELREECRSLRSRCDQLEERVSAMEDEMNEMKREGKFREKRIKRNEQSLQEIWDYVKRPNLRLIGVPESDVENGTKLENTLQDIIQENFPNLARQANVQIQEIQRTPQRYSSRRATPRHIIVRFTKVEMKEKMLRAAREKGRVTLKGKPIRLTADLSAETLQARREWGPIFNILKEKNFQPRISYPAKLSFISEGEIKYFIDKQMLRDFVTTRPALKELLKEALNMERNNRYQPLQNHAKM
AUC [1]
  stoichiometry N: 3

B2: d60_orf1 (ssDNA)
DNA: GATCATGCAGGACAGTCGGATCGCAACCTGATTTACTGTGTCATATAGTACGTGATTCAG
L1 ORF1p [2]
  binding result: binds

B3: d29:d29_cmm mismatched duplex (dsDNA)
DNA 1: AAAAAGTACACAGTCTAACATCAACTCGC
DNA 2: GCGAGTTGACGTCAGACCGTGCACTTTTT
L1 ORF1p [3]
  binding signal: ~1 fold of ssDNA d29_c affinity

B4: d60_c (ssDNA)
DNA: AGCGAGTTGATGTTAGACTGTGTACTTTTTGCGAGTTGATGTTAGACTGTGTACTTTTTA
L1 ORF1p [4]
  apparent K (half saturation): ~1 nM

## ACCUGCACAAUGUGCACAUGAAAAAAAAAA (ssRNA) [r30_3'utr-a]
L1 ORF1p [4]
  apparent K (half saturation): ~1 nM

B5: d120_c (ssDNA)
DNA: AGCGAGTTGATGTTAGACTGTGTACTTTTTGCGAGTTGATGTTAGACTGTGTACTTTTTAAGCGAGTTGATGTTAGACTGTGTACTTTTTGCGAGTTGATGTTAGACTGTGTACTTTTTA
L1 ORF1p [5]
  binding result: binds

B6: d58_pT-b (ssDNA)
DNA: GAGAGATTTTTTTTTTTTTTTTTTTTTTTTTTTTTTTTTTTTTTTTTTTTTCCAGAGC
L1 ORF1p [6]
  binding result: binds

B7: r60_U (ssRNA)
RNA: UUUUUUUUUUUUUUUUUUUUUUUUUUUUUUUUUUUUUUUUUUUUUUUUUUUUUUUUUUUU
L1 ORF1p [2]
  binding result: binds

## GCGAGTTGATGTTAGACTGTGTACTTTTT (ssDNA) [d29_c]
L1 ORF1p [7]
  binding signal: ~1 fold of mismatched duplex affinity

B8: d53_pT-b (ssDNA)
DNA: GAGAGATTTTTTTTTTTTTTTTTTTTTTTTTTTTTTTTTTTTTTTTCCAGAGC
L1 ORF1p [2]
  binding result: binds

B9: M128p, N-terminal deletion mutant of human L1 ORF1p (residues 128-338) (domain or fragment)
chain: GMKREGKFREKRIKRNEQSLQEIWDYVKRPNLRLIGVPESDVENGTKLENTLQDIIQENFPNLARQANVQIQEIQRTPQRYSSRRATPRHIIVRFTKVEMKEKMLRAAREKGRVTLKGKPIRLTADLSAETLQARREWGPIFNILKEKNFQPRISYPAKLSFISEGEIKYFIDKQMLRDFVTTRPALKELLKEALNMERNNRYQPLQNHAKM
AUC [8]
  Kd: ~3.4 µM
  stoichiometry N: 3
AUC [9]
  Kd: ~35 µM

B10: d29:d29_c perfect duplex (dsDNA)
DNA 1: AAAAAGTACACAGTCTAACATCAACTCGC
DNA 2: GCGAGTTGATGTTAGACTGTGTACTTTTT
L1 ORF1p [10]
  binding signal: ~8 fold lower affinity than mismatched duplex N10
